1 substance from publication PMC8597880 can be followed below.

The target of this test is recombinant SARS-CoV-2 RBD, Prototype (SARS-CoV-2, prototype) (UniProt P0DTC2). Briefly: BLI.

In general, Kd refers to a measure of binding affinity in units of concentration. Broadly, the koff is the first-order rate constant of dissociation. Regarding NIH-CoVnb-112 (VHH), the Kd was 1.59 nM and the koff turned out to be 0.000236 s⁻¹.
